According to article PMC2141715:

Biological target: calreticulin (canine pancreas microsomes) (dog (endogenous in canine pancreas microsomes)) (UniProt P28490)
Assay: co-IP

HA glycosylation mutant Δ483 (natural protein)
reduction in binding against wild-type HA: 40%
